Reference: patent US20040235764A1

Biological target: fibronectin
Experiment: cell-based or functional assay

cell adhesion assay: attached F9 cells counted on fibronectin-coated wells after co-transfection with dsRNA integrin α3; reduction against F9 wild-type and co-transfection controls: 40%
Substance: integrin α3β1 (from UniProt Q62470 33-1053; P09055 21-798) (receptor)
